Patent US20180171313A1 (NOVOZYMES A S, published 2018)

Target: T1, chaperone fusion protein (Chap-MBP): 6x histidine tag, E. coli maltose binding protein, linker and mature G. … (Gallaecimonas pentaromativorans …)
T1 construct: also called LIF
Assay: lipase refolded with the chaperone fusion protein, examined as the complex by differential scanning calorimetry
Description: Sample- and reference-solutions (approx. 0.2 ml) were loaded into the calorimeter (reference: buffer without enzyme) from storage conditions at 10° C. and thermally pre-equilibrated for 20 minutes at 20° C. prior to DSC scan from 20° C. to 100° C. Denaturation temperatures were determined at an accuracy of approximately +/−1° C.
In complex with the chaperone fusion protein, the thermostability of the lipase was high with a Td value in the range of 79.9-94.1° C. In a non-parallel trial under similar experimental conditions the thermostability of Lipolase was measured to have a Td value of 77.0° C.

B1: Gallaecimonas pentaromativorans lipase (lipase of the invention), mature part (enzyme)
chain: SGYTQTKYPIVLVHGLFGFDSLAGVDYWYGIPQALSQDGATVYVVNVSAANSTEVRGEQLLVQIDNILALTGAKKVNLIGHSHGGPTARYAASISPGKVASVTSVGGVNWGSRFADALRGTIAPGSVSESVIGAAANAFSSIIEFLSGTPADPQDSVAALNALTTAGSLAFNASYPEGMPSQYCGQGQMQAANGVYYFSWSGASPLTNVLDVTDAALGLTSLVFGESNDGLVSSCSSHLGKVIRDDYAMNHLDEVNQTFGLVSLFETNPKTLYRNQANRLKNLGL
notes: The forward primer adds an ATG start codon through its NdeI site; also called G. pentaromativorans lipase
B1: binds.
